Earlier results as cited in paper PMC3174036.

Target: VEGFR-2 D7 D7 (Homo sapiens) (UniProt P35968)

VEGFR-2 D7 D7 (from UniProt P35968)
Kd: 100 µM
